According to patent US20250282868A1:

Key:
mouse TREM2 (mouse) [1] = target: mouse TREM2 (mouse) (UniProt Q99NH8); assay: MFI on CT26 cells over-expressing mouse TREM2 and DAP12; control in the row of EOS006181
mouse TREM2 (mouse) [2] = target: mouse TREM2 (mouse) (UniProt Q99NH8); assay: MFI on CT26 cells over-expressing mouse TREM2 and DAP12; control in the row of EOS006162
mouse TREM2 (mouse) [3] = target: mouse TREM2 (mouse) (UniProt Q99NH8); assay: MFI on CT26 cells over-expressing mouse TREM2 and DAP12; control in the row of EOS006163
mouse TREM2 (mouse) [4] = target: mouse TREM2 (mouse) (UniProt Q99NH8); assay: MFI on CT26 cells over-expressing mouse TREM2 and DAP12; control in the row of Ab52
mouse TREM2 (mouse) [5] = target: mouse TREM2 (mouse) (UniProt Q99NH8); assay: MFI on CT26 cells over-expressing mouse TREM2 and DAP12; control in the row of EOS006176
mouse TREM2 (mouse) [6] = target: mouse TREM2 (mouse) (UniProt Q99NH8); assay: MFI on CT26 cells over-expressing mouse TREM2 and DAP12; control in the row of EOS006173
mouse TREM2 (mouse) [7] = target: mouse TREM2 (mouse) (UniProt Q99NH8); assay: MFI on CT26 cells over-expressing mouse TREM2 and DAP12; control in the row of EOS006179
mouse TREM2 (mouse) [8] = target: mouse TREM2 (mouse) (UniProt Q99NH8); assay: MFI on CT26 cells over-expressing mouse TREM2 and DAP12; control in the row of EOS006177
mouse TREM2 (mouse) [9] = target: mouse TREM2 (mouse) (UniProt Q99NH8); assay: MFI on CT26 cells over-expressing mouse TREM2 and DAP12; control in the row of EOS006167
mouse TREM2 (mouse) [10] = target: mouse TREM2 (mouse) (UniProt Q99NH8); assay: MFI on CT26 cells over-expressing mouse TREM2 and DAP12; control in the row of EOS006166
mouse TREM2 (mouse) [11] = target: mouse TREM2 (mouse) (UniProt Q99NH8); assay: MFI on CT26 cells over-expressing mouse TREM2 and DAP12; control in the row of EOS006169
mouse TREM2 (mouse) [12] = target: mouse TREM2 (mouse) (UniProt Q99NH8); assay: MFI on CT26 cells over-expressing mouse TREM2 and DAP12; control in the row of EOS006174
mouse TREM2 (mouse) [13] = target: mouse TREM2 (mouse) (UniProt Q99NH8); assay: MFI on CT26 cells over-expressing mouse TREM2 and DAP12; control in the row of EOS006168
mouse TREM2 (mouse) [14] = target: mouse TREM2 (mouse) (UniProt Q99NH8); assay: MFI on CT26 cells over-expressing mouse TREM2 and DAP12; control in the row of EOS006164
mouse TREM2 (mouse) [15] = target: mouse TREM2 (mouse) (UniProt Q99NH8); assay: MFI on CT26 cells over-expressing mouse TREM2 and DAP12; control in the row of EOS006172
mouse TREM2 (mouse) [16] = target: mouse TREM2 (mouse) (UniProt Q99NH8); assay: MFI on CT26 cells over-expressing mouse TREM2 and DAP12; control in the row of PN-37012
mouse TREM2 (mouse) [17] = target: mouse TREM2 (mouse) (UniProt Q99NH8); assay: MFI on CT26 cells over-expressing mouse TREM2 and DAP12; control in the row of EOS006180
mouse TREM2 (mouse) [18] = target: mouse TREM2 (mouse) (UniProt Q99NH8); assay: MFI on CT26 cells over-expressing mouse TREM2 and DAP12; control in the row of EOS006175
mouse TREM2 (mouse) [19] = target: mouse TREM2 (mouse) (UniProt Q99NH8); assay: MFI on CT26 cells over-expressing mouse TREM2 and DAP12; control in the row of EOS006170
mouse TREM2 (mouse) [20] = target: mouse TREM2 (mouse) (UniProt Q99NH8); assay: MFI on CT26 cells over-expressing mouse TREM2 and DAP12; control in the row of EOS006165
mouse TREM2 (mouse) [21] = target: mouse TREM2 (mouse) (UniProt Q99NH8); assay: MFI on CT26 cells over-expressing mouse TREM2 and DAP12; control in the row of EOS006178

Chain of mouse TREM2 (mouse) (Q99NH8 19-227): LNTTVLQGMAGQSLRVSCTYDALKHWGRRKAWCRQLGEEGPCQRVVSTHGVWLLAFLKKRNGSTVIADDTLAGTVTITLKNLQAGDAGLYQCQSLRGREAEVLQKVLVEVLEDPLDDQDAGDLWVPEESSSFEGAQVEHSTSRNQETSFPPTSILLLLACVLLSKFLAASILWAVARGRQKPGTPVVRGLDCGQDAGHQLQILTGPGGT

- Isotype control on CT26-TREM2 MFI (mouse TREM2 (mouse) [1]): 345 MFI
- Isotype control on CT26-TREM2 MFI (mouse TREM2 (mouse) [2]): 2170 MFI
- Isotype control on CT26-TREM2 MFI (mouse TREM2 (mouse) [3]): 402 MFI
- Isotype control on CT26-TREM2 MFI (mouse TREM2 (mouse) [4]): 402 MFI
- Isotype control on CT26-TREM2 MFI (mouse TREM2 (mouse) [5]): 345 MFI
- Isotype control on CT26-TREM2 MFI (mouse TREM2 (mouse) [6]): 679 MFI
- Isotype control on CT26-TREM2 MFI (mouse TREM2 (mouse) [7]): 679 MFI
- Isotype control on CT26-TREM2 MFI (mouse TREM2 (mouse) [8]): 345 MFI
- Isotype control on CT26-TREM2 MFI (mouse TREM2 (mouse) [9]): 2170 MFI
- Isotype control on CT26-TREM2 MFI (mouse TREM2 (mouse) [10]): 295 MFI
- Isotype control on CT26-TREM2 MFI (mouse TREM2 (mouse) [11]): 679 MFI
- Isotype control on CT26-TREM2 MFI (mouse TREM2 (mouse) [12]): 345 MFI
- Isotype control on CT26-TREM2 MFI (mouse TREM2 (mouse) [13]): 2170 MFI
- Isotype control on CT26-TREM2 MFI (mouse TREM2 (mouse) [14]): 345 MFI
- Isotype control on CT26-TREM2 MFI (mouse TREM2 (mouse) [15]): 2170 MFI
- Isotype control on CT26-TREM2 MFI (mouse TREM2 (mouse) [16]): 302 MFI
- Isotype control on CT26-TREM2 MFI (mouse TREM2 (mouse) [17]): 2170 MFI
- Isotype control on CT26-TREM2 MFI (mouse TREM2 (mouse) [18]): 679 MFI
- Isotype control on CT26-TREM2 MFI (mouse TREM2 (mouse) [19]): 679 MFI
- Isotype control on CT26-TREM2 MFI (mouse TREM2 (mouse) [20]): 2170 MFI
- Isotype control on CT26-TREM2 MFI (mouse TREM2 (mouse) [21]): 345 MFI
Substance: Isotype control (antibody)
